Experimental data published in PMC6699925.

Biological target: phospholamban (PLN), mouse (mouse (endogenous in mouse heart)) (UniProt P61014)
Assay: co-IP

Chain of UniProt P61014 (P61014 whole entry): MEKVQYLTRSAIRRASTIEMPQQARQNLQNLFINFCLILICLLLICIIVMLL

In the case of “protein phosphatase 1 catalytic subunit (PP1c), mouse (from UniProt P62137 1-330) (enzyme)”, the reduction of PP1c bound to PLN in Ppp1r3a-KO against WT hearts is reported as 58%.
